In patent US20250145729A1 (DENALI THERAPEUTICS, published 2025):
Where a chain is given by its changes, count along the chain named. Numbers in names are those of the source. Each block holds one binder with its values, some of them ahead of it.

Legend:
[1] = target: T1, cynomolgus monkey TfR on CHO cells (cynomolgus monkey, UniProt Q5RDH6 1-760 (Pongo abelii entry)); assay: cell uptake at 37 C into CHO cells expressing cynomolgus monkey TfR, anti-human IgG staining, imaging (corrected spot intensity)
T1 construct: also called CHO:cyTfR; cyTfR expressing cells
T1 chain: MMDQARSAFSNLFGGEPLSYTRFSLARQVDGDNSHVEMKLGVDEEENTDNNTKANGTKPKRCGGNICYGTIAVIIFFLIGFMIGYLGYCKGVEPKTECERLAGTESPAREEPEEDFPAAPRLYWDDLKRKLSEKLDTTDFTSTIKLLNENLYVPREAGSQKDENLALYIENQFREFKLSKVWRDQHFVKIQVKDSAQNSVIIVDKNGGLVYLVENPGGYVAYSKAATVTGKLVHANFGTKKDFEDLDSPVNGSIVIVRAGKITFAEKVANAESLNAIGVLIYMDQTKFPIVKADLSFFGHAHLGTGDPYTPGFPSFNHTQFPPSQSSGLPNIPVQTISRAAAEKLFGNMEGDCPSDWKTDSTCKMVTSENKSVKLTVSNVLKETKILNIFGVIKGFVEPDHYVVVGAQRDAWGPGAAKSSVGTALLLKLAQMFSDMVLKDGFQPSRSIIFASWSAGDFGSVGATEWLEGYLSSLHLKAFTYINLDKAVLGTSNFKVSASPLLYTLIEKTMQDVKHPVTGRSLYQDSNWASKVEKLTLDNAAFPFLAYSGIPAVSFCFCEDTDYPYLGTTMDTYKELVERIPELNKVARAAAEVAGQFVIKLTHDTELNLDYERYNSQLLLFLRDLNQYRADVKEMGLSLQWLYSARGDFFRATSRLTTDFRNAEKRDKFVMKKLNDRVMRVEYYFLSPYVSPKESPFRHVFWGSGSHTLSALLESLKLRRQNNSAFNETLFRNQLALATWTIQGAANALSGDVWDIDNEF
Experimental: (§1) HEK293T, CHO:cyTfR, and CHO cells were plated at 40,000 cells/well of 96-well plates in standard growth media (DMEM (Gibco™ 11995073)+10% FBS (VWR 89510⁻¹⁸⁸)+1×Pen/Strep (Gibco 15140122)). Approximately 24 hours later, molecules were diluted into standard growth media warmed to 37° C. Old media was removed from the cells, and the diluted molecules were added to the cells. Cells were incubated at 37° C. for 45 minutes. Cells were then washed with PBS and then fixed for 10 minutes in 4% PFA (Electron Microscopy Sciences 15714-S). Cells were washed with PBS and then blocked with 5% BSA, 0.3% TritonX100 in PBS for 30 minutes. […] Cells were washed with PBS, imaged on an Opera Phenix, and images were analyzed with Harmony software.

[2] = target: T2, human TfR on HEK293T cells (human, UniProt P02786 1-760); assay: cell uptake at 37 C into HEK293T human TfR positive cells, anti-human IgG staining, imaging (corrected spot intensity)
T2 construct: also called huTfR expressing cells; human TfR-positive cells
Experimental: as §1

[3] = target: T3, circularly permuted human TfR apical domain (human, biotin on the Avi tag); assay: SPR
T3 construct: a linker between the two segments is not described; also called huTfR apical domain; not shown: Avi tag and PreScission site left after Ulp1 cleavage
T3 chain: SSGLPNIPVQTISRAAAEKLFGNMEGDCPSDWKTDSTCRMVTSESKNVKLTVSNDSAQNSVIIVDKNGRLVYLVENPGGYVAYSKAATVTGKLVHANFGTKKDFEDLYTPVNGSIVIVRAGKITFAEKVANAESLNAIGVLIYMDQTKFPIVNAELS
Experimental: (§2) Biacore™ Series S CM5 sensor chips were immobilized with anti-human Fab (GE Healthcare, 28958325). Molecules were captured on each flow cell and serial 3-fold dilutions of human TfR apical domain (2, 0.67, 0.22, 0.074, 0.025, and 0 μM) and cynomologous TfR apical domain (4, 1.3, 0.44, 0.15, 0.05, and 0 μM) were injected at a flow rate of 30 μL/min using single cycle kinetics method. Each sample was analyzed with a 60-second association and a 3-minute dissociation. After each cycle, the chip was regenerated using 10 mM glycine-HCl (pH 2.1) for 30 seconds at 50 μL/min. Binding response was corrected by subtracting the RU from a reference flow cell. A 1:1 Langmuir model of simultaneous fitting of kₒₙ and koff was used for kinetics analysis using Biacore™ 8K Evaluation Software. Table 32A below summarizes the binding affinities of selected clones for human and cynomolgus TfR apical domains.
(§3) The phage library was panned against biotinylated human TfR apical domain immobilized to magnetic streptavidin beads. Four rounds of phage panning were performed and enriched clones were sequenced. Unique hits were cloned onto an anti-BACE1 hIgG1 monoclonal antibody containing the “LALA” mutations, expressed in HEK293 cells, and purified by protein A chromatography. Affinity to human and cyno TfR apical domain was measured by SPR. Clones were evaluated for TfR-specific cell binding (FIGS. 43A and 43B).

[4] = target: T4, circularly permuted cyno TfR apical domain (cynomolgus monkey, biotin on the Avi tag); assay: SPR
T4 construct: a linker between the two segments is not described; also called cyTfR apical domain; not shown: Avi tag and PreScission site left after Ulp1 cleavage
T4 chain: T3 chain with R39K, S45N, N47S, R69G, Y108D, T109S, N153K, E155D
Experimental: as §2, §3

TfR [5] = target: T5, TfR (Homo sapiens (Human), UniProt P02786 121-760, limits assumed); assay: Biacore, after low pH hold and neutralisation
T5 construct: also called transferrin receptor
Experimental: (§4) Clone 6.5.11.5.42.2, with and without LS mutations, was assessed for low pH stability during developability assessment. The tested proteins are bivalent Fc-Fab fusion polypeptides comprising an anti-HER2 Fab domain linked to two Fc polypeptides each having the sequence of the identified clone and LALA mutations, with LS mutations or without LS mutations. An Fc control containing the anti-HER2 Fab domain linked to an Fc domain with LALA mutations and without TfR-binding sites was included for comparison.
(§5) Aliquots (100 μL) of each clone were added to wells of a 96-well plate containing 6 μL of 5% (v/v) acetic acid and mixed well. The plate was sealed and incubated at room temperature for about three (3) hours. Subsequently, 35 μL of 1 M Tris HCl (pH 7.5) was added to the samples and mixed well. The plate was sealed once again and incubated at room temperature for 24 hours. Control condition was storage in 1× PBS without any change in pH during incubation. The samples were then analyzed by Biacore for binding affinity and by size exclusion chromatography to detect intact fusion protein. FIG. 22 and Table 26 provide the results of the analyses.

TfR [6] = target: T5, TfR; assay: Biacore, control sample kept in PBS
Experimental: as §4, §5

human CD98hc [7] = target: T6, human CD98hc (human, UniProt P08195 109-529); assay: affinity as listed in study design table; method not given there; Bivalent, NBF Fabs
T6 construct: also called huCD98hc; CD98 heavy chain
T6 sequence: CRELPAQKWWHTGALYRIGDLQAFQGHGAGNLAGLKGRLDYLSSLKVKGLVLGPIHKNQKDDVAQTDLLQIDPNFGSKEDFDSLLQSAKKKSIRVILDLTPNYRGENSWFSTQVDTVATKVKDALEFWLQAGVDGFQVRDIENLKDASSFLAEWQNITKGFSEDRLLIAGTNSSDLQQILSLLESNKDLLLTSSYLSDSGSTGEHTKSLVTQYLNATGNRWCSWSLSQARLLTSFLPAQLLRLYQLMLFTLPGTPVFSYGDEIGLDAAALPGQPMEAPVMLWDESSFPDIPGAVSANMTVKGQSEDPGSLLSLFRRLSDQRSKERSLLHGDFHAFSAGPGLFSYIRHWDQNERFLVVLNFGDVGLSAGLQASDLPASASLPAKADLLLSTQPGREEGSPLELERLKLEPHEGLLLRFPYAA

human CD98hc [8] = target: T6, human CD98hc; assay: affinity as listed in study design table; method not given there
human CD98hc [9] = target: T6, human CD98hc; assay: as above; remark: listed apart in the source
human CD98hc [10] = target: T6, human CD98hc; assay: as above; remark: listed apart in the source

binding result [1]: binds | binding result [2]: binds | Kd [3]: 0.48 µM | Kd [4]: 1.8 µM
B1: Clone 1 with LALA (Fc fusion)
chain: APEAAGGPSVFLFPPKPKDTLMISRTPEVTCVVVDVSHEDPEVKFNWYVDGVEVHNAKTKPREEQYNSTYRVVSVLTVLHQDWLNGKEYKCKVSNKALPAPIEKTISKAKGQPREPQVYTLPPSRDELTKNQVSLTCLVKGFYPSDIAVKWGSEVAPENNYKTTPPVLDSDGSFFLYSKLTVDKSRWQQGNIFACTVMHEALHNHYTLKMLSLSPGK
notes: Fc part only

binding result [1]: binds | binding result [2]: binds | Kd [3]: 1.5 µM | Kd [4]: 6 µM
B2: Clone 3 with LALA (Fc fusion)
chain: B1 chain with K150L, E154A, I192V, L208V, M210G
notes: Fc part only

Kd (TfR [5]): 1.18 µM | Kd (TfR [6]): 1.17 µM
B3: 42.2 LALA (bivalent clone 6.5.11.5.42.2 with LALA, anti-HER2 Fab) (Fc fusion)
chain: APEAAGGPSVFLFPPKPKDTLMISRTPEVTCVVVDVSHEDPEVKFNWYVDGVEVHNAKTKPREEQYNSTYRVVSVLTVLHQDWLNGKEYKCKVSNKALPAPIEKTISKAKGQPREPQVYTLPPSRDELTKNQVSLTCLVKGFYPSDIAVEWFSDGSKETNYKTTPPVLDSDGSFFLYSKLTVDKSRWQQGNLFACEVMHEALHNHYTYKLLSLSPGK

Kd (TfR [5]): 1.81 µM | Kd (TfR [6]): 1.7 µM
B4: 42.2 LALA LS (bivalent clone 6.5.11.5.42.2 with LALA and LS, anti-HER2 Fab) (Fc fusion)
chain: B3 chain with M198L, N204S

Kd (human CD98hc [7]): 1 µM
B5: Clone 4: LLB1-3 D380E bivalent, non-binding Fabs (Fc fusion)
chain: APELLGGPSVFLFPPKPKDTLMISRTPEVTCVVVDVSHEDPEVKFNWYVDGVEVHNAKTKPREEQYNSTYRVVSVLTVLHQDWLNGKEYKCKVSNKALPAPIEKTISKAKGQPREPQVYTLPPSRDELTKNQVSLTCLVKGFYPSDIAVEWRSYKPYENNYKTTPPVLDSDGSFFLYSKLTVDKSRWQQGNIFVCDVMHEALHNHYTIKKLSLSPGK
notes: bivalent; effector positive

Kd (human CD98hc [8]): 0.1 to 0.2 µM
B6: Clone 1: LLB2-10-8 bivalent, BACE1 Fabs (Fc fusion)
chain: APELLGGPSVFLFPPKPKDTLMISRTPEVTCVVVDVSHEDPEVKFNWYVDGVEVHNAKTKPREEQYNSTYRVVSVLTVLHQDWLNGKEYKCKVSNKALPAPIEKTISKAKGQPREPQVYTLPPSRDELTKNQVSLTCLVKGFYPSDIAVLWNSRFVLENNYKTTPPVLDSDGSFFLYSKLTVDKSRWQQGEIFACNVYHEALHNHYTFKNLALSPGK
notes: bivalent; effector positive

Kd (human CD98hc [9]): 0.1 to 0.2 µM | Kd (human CD98hc [10]): 0.1 to 0.2 µM
B7: Clone 26: LLB2-10-8 bivalent, non-binding Fabs (Fc fusion)
chain: B6 chain
notes: bivalent; effector positive

Kd (human CD98hc [9]): 0.39 µM
B8: Clone 28: LLB2-37 bivalent, non-binding Fabs (Fc fusion)
chain: B6 chain with R154Q, V156H, E191N, A212L
notes: bivalent; effector positive
